Data: patent US20080254026A1
Values belong to the substance of their own block, whether it stands above or below them.

How the values were obtained:
Assay in all cases: cell-based or functional assay
[1] = target: human CD40 on the surface of B cells within PBMC from normal human subjects (human) (UniProt P25942)
[2] = target: human CD40 antigen expressed on the surface of cells (human) (UniProt P25942)
[3] = target: human CD40 antigen on the surface of B cells in human PBMC (human) (UniProt P25942)
[4] = target: human CD40 on normal human B cells (PBMC or purified B cells) (human) (UniProt P25942)
[5] = target: human CD20 on the surface of lymphoma cell lines (Ramos or Daudi) (human) (UniProt P11836)
CD20 (human) = CD20 (human) (UniProt P11836)
Sequence of CD20 (human) (P11836 whole entry): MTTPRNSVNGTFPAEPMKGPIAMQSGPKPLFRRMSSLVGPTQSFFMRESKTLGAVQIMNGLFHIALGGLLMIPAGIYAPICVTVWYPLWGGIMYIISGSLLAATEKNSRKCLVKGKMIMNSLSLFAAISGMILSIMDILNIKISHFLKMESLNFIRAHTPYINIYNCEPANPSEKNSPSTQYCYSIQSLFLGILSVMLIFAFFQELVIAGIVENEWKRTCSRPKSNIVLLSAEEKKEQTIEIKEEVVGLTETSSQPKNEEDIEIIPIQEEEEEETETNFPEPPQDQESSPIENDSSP

Sequence of CD40 ligand expressed on formaldehyde-fixed CHO cells (P29965 whole entry): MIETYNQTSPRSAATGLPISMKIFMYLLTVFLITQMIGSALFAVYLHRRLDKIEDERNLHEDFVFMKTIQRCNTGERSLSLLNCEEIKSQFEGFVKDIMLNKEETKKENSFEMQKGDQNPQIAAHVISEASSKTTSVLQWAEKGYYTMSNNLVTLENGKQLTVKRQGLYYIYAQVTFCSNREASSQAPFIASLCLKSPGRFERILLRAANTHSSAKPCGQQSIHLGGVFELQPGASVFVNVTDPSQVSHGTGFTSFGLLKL
Sequence of CD40 ligand on formaldehyde-fixed CHO transfectant cells (P29965 whole entry): as above
Sequence of human CD20 on the surface of lymphoma cell lines (Ramos or Daudi) (human) (P11836 whole entry): as the sequence (P11836 whole entry) above
Sequence of human CD40 antigen on the surface of B cells in human PBMC (human) (P25942 20-277): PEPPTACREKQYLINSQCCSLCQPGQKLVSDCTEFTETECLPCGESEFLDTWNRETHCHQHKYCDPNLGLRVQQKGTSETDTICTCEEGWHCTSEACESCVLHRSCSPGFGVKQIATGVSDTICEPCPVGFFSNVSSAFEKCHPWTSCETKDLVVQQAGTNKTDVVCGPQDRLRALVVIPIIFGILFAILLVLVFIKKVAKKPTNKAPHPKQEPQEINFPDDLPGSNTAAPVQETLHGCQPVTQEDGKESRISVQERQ
Sequence of human CD40 on the surface of B cells within PBMC from normal human subjects (human) (P25942 20-277): as above
Sequence of human CD40 on normal human B cells (PBMC or purified B cells) (human) (P25942 20-277): as above
Sequence of human CD40 antigen expressed on the surface of cells (human) (P25942 20-277): as above

Average SI of PBMC; PBMC + CHO-CD40L, index (1) [1]: 11.9
Average Stimulation index; PBMC + CHO-CD40L, S. index (1) [1]: 22
PBMC + CHO-CD40L, CPM; Immoblize-004 [1]: 11700 CPM
PBMC + CHO-CD40L, CPM; PBMC-012 [1]: 6810 CPM
PBMC + CHO-CD40L, CPM; PBMC-025 Donor#1 [1]: 42300 CPM
PBMC + CHO-CD40L, CPM; PBMC-025 Donor#2 [1]: 15000 CPM
PBMC + CHO-CD40L, CPM; PBMC-026 Donor#1 [1]: 18300 CPM
PBMC + CHO-CD40L, CPM; PBMC-026 Donor#2 [1]: 18100 CPM
PBMC + CHO-CD40L, CPM; PBMC-027 Donor#1 [1]: 13000 CPM
PBMC + CHO-CD40L, CPM; PBMC-027 Donor#2 [1]: 11900 CPM
PBMC + CHO-CD40L, CPM; PBMC-028 Donor#1 [1]: 22500 CPM
PBMC + CHO-CD40L, CPM; PBMC-028 Donor#2 [1]: 54900 CPM
PBMC + CHO-CD40L, CPM; PBMC-029 Donor#1 [1]: 10100 CPM
PBMC + CHO-CD40L, CPM; PBMC-029 Donor#2 [1]: 23100 CPM
PBMC + CHO-CD40L, CPM; PBMC-030 Donor#1 [1]: 57200 CPM
PBMC + CHO-CD40L, CPM; PBMC-030 Donor#2 [1]: 53900 CPM
PBMC + CHO-CD40L, CPM; PBMC-032 Donor#1 [1]: 15300 CPM
PBMC + CHO-CD40L, S. index (1); Immoblize-004 [1]: 13.7
PBMC + CHO-CD40L, S. index (1); PBMC-012 [1]: 30.3
PBMC + CHO-CD40L, index (1); PBMC-025 Donor#1 [1]: 10.4
PBMC + CHO-CD40L, index (1); PBMC-025 Donor#2 [1]: 6.63
PBMC + CHO-CD40L, index (1); PBMC-026 Donor#1 [1]: 8.78
PBMC + CHO-CD40L, index (1); PBMC-026 Donor#2 [1]: 26.7
PBMC + CHO-CD40L, index (1); PBMC-027 Donor#1 [1]: 4.75
PBMC + CHO-CD40L, index (1); PBMC-027 Donor#2 [1]: 8.89
PBMC + CHO-CD40L, index (1); PBMC-028 Donor#1 [1]: 5.26
PBMC + CHO-CD40L, index (1); PBMC-028 Donor#2 [1]: 25.6
PBMC + CHO-CD40L, index (1); PBMC-029 Donor#1 [1]: 16.5
PBMC + CHO-CD40L, index (1); PBMC-029 Donor#2 [1]: 2.99
PBMC + CHO-CD40L, index (1); PBMC-030 Donor#1 [1]: 13.7
PBMC + CHO-CD40L, index (1); PBMC-030 Donor#2 [1]: 16.2
PBMC + CHO-CD40L, index (1); PBMC-032 Donor#1 [1]: 8.45
average stimulation index (SI), proliferation of total PBMC [2]: 7.41
Average SI of PBMC; PBMC + CHO-CD40L, index (1) [3]: 5.09
PBMC proliferation (3H-thymidine), CPM of PBMC + CHO-CD40L; PBMC-010 [3]: 5280 CPM
PBMC proliferation (3H-thymidine), CPM of PBMC + CHO-CD40L; PBMC-011 Donor#1 [3]: 8250 CPM
PBMC proliferation (3H-thymidine), CPM of PBMC + CHO-CD40L; PBMC-011 Donor#2 [3]: 11600 CPM
PBMC proliferation (3H-thymidine), CPM of PBMC + CHO-CD40L; PBMC-011 Donor#3 [3]: 7960 CPM
PBMC proliferation (3H-thymidine), CPM of PBMC + CHO-CD40L; PBMC-011 Donor#4 [3]: 14300 CPM
PBMC proliferation (3H-thymidine), CPM of PBMC + CHO-CD40L; PBMC-014 [3]: 8790 CPM
PBMC proliferation (3H-thymidine), CPM of PBMC + CHO-CD40L; PBMC-015 Donor#1 [3]: 12900 CPM
PBMC proliferation (3H-thymidine), CPM of PBMC + CHO-CD40L; PBMC-015 Donor#2 [3]: 19100 CPM
PBMC proliferation (3H-thymidine), CPM of PBMC + CHO-CD40L; PBMC-015 Donor#3 [3]: 19800 CPM
PBMC proliferation (3H-thymidine), CPM of PBMC + CHO-CD40L; PBMC-016 [3]: 15800 CPM
index (1) = (PBMC + CHO-CD40L)/PBMC; PBMC-010 [3]: 3.73
index (1) = (PBMC + CHO-CD40L)/PBMC; PBMC-011 Donor#1 [3]: 3.86
index (1) = (PBMC + CHO-CD40L)/PBMC; PBMC-011 Donor#2 [3]: 4.87
index (1) = (PBMC + CHO-CD40L)/PBMC; PBMC-011 Donor#3 [3]: 2.46
index (1) = (PBMC + CHO-CD40L)/PBMC; PBMC-011 Donor#4 [3]: 3.41
index (1) = (PBMC + CHO-CD40L)/PBMC; PBMC-014 [3]: 3.74
index (1) = (PBMC + CHO-CD40L)/PBMC; PBMC-015 Donor#1 [3]: 3.94
index (1) = (PBMC + CHO-CD40L)/PBMC; PBMC-015 Donor#2 [3]: 3.14
index (1) = (PBMC + CHO-CD40L)/PBMC; PBMC-015 Donor#3 [3]: 8
index (1) = (PBMC + CHO-CD40L)/PBMC; PBMC-016 [3]: 13.8
Substance: CD40 ligand expressed on formaldehyde-fixed CHO cells (from UniProt P29965 1-261)

Average Stimulation Index (SI), B cells + CHO-CD40L [4]: 145
S. index (1) = CPM (B cells + CHO-CD40L)/CPM (B cells alone); B cell-004 Donor 1 [4]: 7.49
S. index (1) = CPM (B cells + CHO-CD40L)/CPM (B cells alone); B cell-004 Donor 2 [4]: 336
S. index (1) = CPM (B cells + CHO-CD40L)/CPM (B cells alone); B cell-005 Donor 3 [4]: 92
Substance: CD40 ligand on formaldehyde-fixed CHO transfectant cells (from UniProt P29965 1-261)

% lysis (Ramos or Daudi; ADCC-012 Calcien AM, huNK E:T 10; 1 ug/ml) [5]: 66%
% lysis - % lysis IgG1 (Ramos or Daudi; ADCC-006 Alarmor Blue, huNK E:T 2; 0.01 ug/ml) [5]: 33%
% lysis - % lysis IgG1 (Ramos or Daudi; ADCC-013 51Cr, PBMC E:T 100; 0.001 ug/ml) [5]: 0.35%
% lysis (ADCC-012 Calcein AM, huNK E:T 10, 1 ug/ml) (CD20 (human)): 66%
% lysis - % lysis IgG1 (ADCC-006 Alarmor Blue, huNK E:T 2, 0.01 ug/ml) (CD20 (human)): 33%
% lysis - % lysis IgG1 (ADCC-013 51Cr, PBMC E:T 100, 0.001 ug/ml) (CD20 (human)): 0.35%
Substance: rituximab (Rituxan; IDEC-C2B8) (antibody)
